Where two headings read alike, the source gives them in different places.
T1: human TIGIT expressed on cells (human, UniProt Q495A1 22-244)
T1 construct: whole, on cells; cDNA encoding human TIGIT in pCHO1.0 for CHO cells; also called CHO-huTIGIT cells
T1 sequence (looked up): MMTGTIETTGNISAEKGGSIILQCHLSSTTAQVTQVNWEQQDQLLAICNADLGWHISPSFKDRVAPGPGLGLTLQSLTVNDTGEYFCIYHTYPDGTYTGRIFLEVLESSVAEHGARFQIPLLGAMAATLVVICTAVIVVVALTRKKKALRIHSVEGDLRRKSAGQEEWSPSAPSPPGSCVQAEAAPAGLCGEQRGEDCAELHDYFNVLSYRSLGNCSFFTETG

T2: mouse TIGIT overexpressed on CHO cells (mouse, UniProt P86176 29-249)
T2 construct: whole, on cells; also called CHO-muTIGIT cells
T2 sequence (looked up): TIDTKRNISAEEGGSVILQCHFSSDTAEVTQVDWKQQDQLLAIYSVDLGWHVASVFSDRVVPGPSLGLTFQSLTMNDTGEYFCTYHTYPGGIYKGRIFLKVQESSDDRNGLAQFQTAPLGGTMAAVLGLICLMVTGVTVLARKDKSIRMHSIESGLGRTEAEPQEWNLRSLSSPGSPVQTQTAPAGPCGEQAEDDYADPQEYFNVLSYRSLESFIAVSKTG

T3: mouse TIGIT-his protein (mouse, UniProt P86176 29-148)
T3 construct: not shown: his tag
T3 sequence: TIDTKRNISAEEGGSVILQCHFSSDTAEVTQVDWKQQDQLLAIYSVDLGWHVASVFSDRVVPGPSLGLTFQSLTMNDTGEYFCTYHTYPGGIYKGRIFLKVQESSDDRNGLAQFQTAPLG

T4: human TIGIT-his protein (human, UniProt Q495A1 22-141)
T4 construct: not shown: his tag
T4 sequence: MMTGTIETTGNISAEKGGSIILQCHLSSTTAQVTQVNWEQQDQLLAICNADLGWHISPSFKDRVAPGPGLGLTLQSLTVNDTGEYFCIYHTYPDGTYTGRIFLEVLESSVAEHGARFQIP


What was measured:
[1] = biological target: T1, human TIGIT expressed on cells; experiment: flow cytometry, CHO-huTIGIT cells
Description: (§1) Specifically, CHO cells overexpressing human TIGIT (CHO-huTIGIT cells), CHO cells overexpressing cynomolgus TIGIT (CHO-cynoTIGIT cells) and CHO cells overexpressing mouse TIGIT (CHO-muTIGIT cells) were generated by transfection of the pCHO1.0 vector (purchased from Invitrogen) with cDNA encoding human TIGIT, cynomolgus TIGIT and mouse TIGIT cloned into the multiple cloning site (MCS), respectively, followed by pressure screening. The overexpressing cells were expanded and adjusted to an appropriate cell density, and added to a 96-well flow cytometry plate. After centrifugation, the cells were added with a gradiently diluted sample to be tested, and incubated at 4° C. for 30 minutes. The cells were washed twice with PBS, and added with a fluorescent secondary antibody correspondingly diluted to an appropriate concentration, then incubated at 4° C. for 30 minutes, and washed twice with PBS. Cells were resuspended with PBS, and detected on a CytoFlex flow cytometer, and the corresponding MFI was calculated. Graphpad software was used for graphical analysis to obtain EC₅₀ values.

[2] = biological target: T2, mouse TIGIT overexpressed on CHO cells; experiment: flow cytometry, CHO-muTIGIT cells
Description: as §1

[3] = biological target: T5, cynomolgus TIGIT overexpressed on CHO cells (cynomolgus, UniProt A0A7N9I9V4 89-312); experiment: flow cytometry, CHO-cynoTIGIT cells
T5 construct: whole, on cells; also called CHO-cynoTIGIT cells
Description: as §1

mouse TIGIT-his protein = biological target: T3, mouse TIGIT-his protein; experiment: BLI (ForteBio), IgG on AHQ sensor, monovalent
Description: (§2) The antibody-loaded sensor was incubated in 100 nM TIGIT-his antigen to the plateau phase, and then the sensor was transferred to an analysis buffer and incubated for at least 2 minutes for measuring dissociation rate. The kinetic analysis was performed using a 1:1 binding model.

human TIGIT-his protein [4] = biological target: T4, human TIGIT-his protein; experiment: BLI (ForteBio), IgG on AHQ sensor, 100 nM TIGIT-his, monovalent, 1:1 model
Description: (§3) Biofilm layer optical interference technology (ForteBio) was used to determine the binding and dissociation […] values of the anti-TIGIT monoclonal antibodies obtained in Example 1 to human, cynomolgus monkey and mouse TIGIT. Fortebio affinity measurements were performed according to existing methods (Este, P et al., High throughput solution-based measurement of antibody-antigen affinity and epitope binning. Mabs, 2013.5(2): p 270-8).
as §2

[5] = biological target: T6, cynomolgus monkey TIGIT-his protein (cynomolgus monkey); experiment: as above
T6 construct: also called Cynomolgus TIGIT-his; not shown: his tag
Description: as §3, §2

[6] = biological target: T1, human TIGIT expressed on cells; experiment: flow cytometry, competition with human CD155-mouse IgG2a Fc (2 ug/mL) on CHO-huTIGIT cells
Description: (§4) Specifically, the CHO-huTIGIT cells were expanded and adjusted to a cell density of 2×10⁶ cells/mL, added to a 96-well flow plate at 100 μL/well, and centrifuged for later use. The purified monoclonal antibodies were diluted 3-fold with PBS starting at 400 nM for a total of 12 concentration gradients. The diluted sample was added at 60 μL/well to the cells-carrying 96-well flow plate, and incubated at 4° C. for 30 minutes. […] APC-conjugated goat anti-mouse IgG antibody diluted 100-fold with PBS was added at 100 μL/well, incubated at 4° C. for 30 minutes, and washed twice with PBS. Cells were resuspended with PBS at 100 μL/well, and detected on a CytoFlex flow cytometer, and the corresponding MFI was calculated.

[7] = biological target: T1, human TIGIT expressed on cells; experiment: flow cytometry on activated human primary T cells (TIGIT), readout positive cell (%); unit from the concentration axis
Description: The binding activity of the anti-TIGIT antibody of the present invention to TIGIT on the surface of activated T cells was detected based on the flow cytometry detection method.
Specifically, human PBMC were sorted according to the experimental protocol provided by […] Company (stemcell, Cat. No.: #17951C) to obtain human total T cells. […] The activated T cells were adjusted to an appropriate cell density and added to a 96-well flow cytometry plate. After centrifugation, the gradiently diluted sample to be tested was added, and incubated at 4° C. for 30 minutes. Washing was carried out twice with PBS, and a fluorescent secondary antibody diluted to an appropriate concentration was added, incubated at 4° C. for 30 minutes, and washed twice with PBS. […]

[8] = biological target: T1, human TIGIT expressed on cells; experiment: flow cytometry on CHO cells overexpressing human TIGIT, median fluorescence intensity PE-A; unit from the concentration axis
Description: as §1

[9] = biological target: T5, cynomolgus TIGIT overexpressed on CHO …; experiment: flow cytometry on CHO cells overexpressing cynomolgus TIGIT, median fluorescence intensity PE-A; unit from the concentration axis
Description: as §1

[10] = biological target: T1, human TIGIT expressed on cells; experiment: flow cytometry blocking assay: binding of human CD155 protein with mouse IgG2a Fc tag to CHO cells overexpressing human TIGIT, median fluorescence intensity APC-A; unit from the concentration axis
Description: as §4

[11] = biological target: T1, human TIGIT expressed on cells; experiment: flow cytometry, CHO-huTIGIT cells; remark: listed apart in the source
Description: as §1, with “(CHO-huTIGITcells),” for “(CHO-huTIGIT cells),”

[12] = biological target: T2, mouse TIGIT overexpressed on CHO cells; experiment: flow cytometry, CHO-muTIGIT cells; remark: listed apart in the source
Description: as §1, with “(CHO-huTIGITcells),” for “(CHO-huTIGIT cells),”

[13] = biological target: T5, cynomolgus TIGIT overexpressed on CHO …; experiment: flow cytometry, CHO-cynoTIGIT cells; remark: listed apart in the source
Description: as §1, with “(CHO-huTIGITcells),” for “(CHO-huTIGIT cells),”

human TIGIT-his protein [14] = biological target: T4, human TIGIT-his protein; experiment: BLI (ForteBio), antibody on AHQ sensor, 100 nM antigen, monovalent, 1:1 model
Description: (§5) The antibody-loaded sensor was incubated in 100 nM target antigen to the plateau phase, and then the sensor was transferred to an analysis buffer and incubated for at least 2 minutes for measuring dissociation rate. The kinetic analysis was performed using a 1:1 binding model.

[15] = biological target: T6, cynomolgus monkey TIGIT-his protein; experiment: as above
Description: as §5

[16] = biological target: T1, human TIGIT expressed on cells; experiment: flow cytometry, competition with human CD155-mouse IgG2a Fc (2 ug/mL) on CHO-huTIGIT cells; remark: listed apart in the source
Description: as §4, with “antibody was” for “monoclonal antibodies were”

[17] = biological target: T2, mouse TIGIT overexpressed on CHO cells; experiment: flow cytometry, competition with mouse CD155-mouse IgG2a Fc (2 ug/mL) on CHO-muTIGIT cells
Description: as §4, with “The CHO-muTIGIT” for “Specifically, the CHO-huTIGIT”, “antibody was” for “monoclonal antibodies were”, “calculated. Graphpad software was used for graphing analysis to obtain IC₅₀ values.” for “calculated.”

T5 sequence (A0A7N9I9V4 entry or part of it): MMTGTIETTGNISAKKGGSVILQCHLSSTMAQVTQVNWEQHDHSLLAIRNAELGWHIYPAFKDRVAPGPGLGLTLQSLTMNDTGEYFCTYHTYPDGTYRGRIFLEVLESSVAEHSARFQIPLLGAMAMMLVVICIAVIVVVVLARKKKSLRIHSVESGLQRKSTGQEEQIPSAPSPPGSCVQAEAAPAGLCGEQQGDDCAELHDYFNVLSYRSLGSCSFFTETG
T6 sequence (chain, as listed by the source): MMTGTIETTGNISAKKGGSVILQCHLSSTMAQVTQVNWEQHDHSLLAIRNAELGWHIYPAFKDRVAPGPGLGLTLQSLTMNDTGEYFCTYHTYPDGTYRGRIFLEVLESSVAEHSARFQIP

EC50 [1] [pM]	binding result [2]	EC50 [3] [pM]	binding result (mouse TIGIT-his protein)	Kd (human TIGIT-his protein [4]) [pM]	Kd [5] [pM]	IC50 [6] [pM]	EC50 [7] [pM]	EC50 [8] [pM]	EC50 [9] [pM]	IC50 [10] [pM]	EC50 [11] [pM]	binding result [12]	EC50 [13] [pM]	Kd (human TIGIT-his protein [14]) [pM]	Kd [15] [pM]	IC50 [16] [pM]	EC50 [12] [pM]	IC50 [17] [pM]	Binder
660	no binding	1130	no binding (tested: 100 nM)	3500	24100	360	51.8	658	1120	356									anti-TIGIT monoclonal antibody 55812-G1 (antibody, human IgG1, V domains shown, Wild-type human IgG1 heavy chain constant region, human kappa light chain constant region; HEK293) VH: QVQLVQSGAEVKKPGASVKVSCKASGYAFTGYYMHWVRQAPGQGLEWMGSIIPFSGEANYAQKFQGRVTMTRDTSISTAYMELSRLRSDDTAVYYCARGPGSLDRLWYYYYGMDVWGQGTTVTVSS VL: not shown
											964	no binding	1500	1900	34000	296			anti-TIGIT monoclonal antibody ADI-55812 (antibody, V domains shown) VH: QVQLVQSGAEVKKPGASVKVSCKASGYAFTGYYMHWVRQAPGQGLEWMGSIIPFSGEANYAQKFQGRVTMTRDTSISTAYMELSRLRSDDTAVYYCARGPGSLDRLWYYYYGMDVWGQGTTVTVSS VL: not shown
700	no binding	1280	no binding (tested: 100 nM)	3400	22100	320	57	698	1280	319									anti-TIGIT monoclonal antibody 55812-G1LALA (antibody, human IgG1, V domains shown, Human IgG1 heavy chain constant region modified by L234A, L235A; human kappa light chain constant region; HEK293) VH: QVQLVQSGAEVKKPGASVKVSCKASGYAFTGYYMHWVRQAPGQGLEWMGSIIPFSGEANYAQKFQGRVTMTRDTSISTAYMELSRLRSDDTAVYYCARGPGSLDRLWYYYYGMDVWGQGTTVTVSS VL: not shown
											1430		1000	322	3120	425	2520	889	anti-TIGIT monoclonal antibody ADI-55796 (antibody, V domains shown) VH: QLQLQESGPGLVKPAETLSLTCTVSGGSISSYDHYWTWIRQPPGKGLEWIGTVYYSGSTFHNPSLKSRVTIPVDTSKNQFSLKLSSVTAADTAVYYCARVGPDVSHPPFDYWGQGTLVTVSS VL: not shown
